According to patent publication US20260115302A1 (XILIO DEVELOPMENT, published 2026):

Molecular target: T1, CD25-Fc (UniProt P01589 22-240)
T1 construct: Analyte flowed over the immobilised constructs in SPR (16, 8, 4, 2, 1 nM); also called IL-2Ralpha-Fc; not shown: Fc part of the reagent
T1 sequence (looked up): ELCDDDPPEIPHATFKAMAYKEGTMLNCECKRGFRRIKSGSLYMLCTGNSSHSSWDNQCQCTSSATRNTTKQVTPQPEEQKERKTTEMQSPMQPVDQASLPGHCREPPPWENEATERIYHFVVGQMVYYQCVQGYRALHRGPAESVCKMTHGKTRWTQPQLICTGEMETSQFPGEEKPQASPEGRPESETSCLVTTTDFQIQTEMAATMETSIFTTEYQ
Experiment: SPR (Reichert 4Channel, 25 C): MMP-activated construct immobilised on the chip by amine coupling, CD25-Fc flowed over as analyte

B1: AK168 after protease cleavage (Fc fusion)
chain: LYHPSGPAPTSSSTKKTQLQLEHLLLDLQMILNGINNYKNPKLTAMLTAKFAMPKKATELKHLQCLEEALKPLEEVLNLAQSKNFHLRPRDLISNINVIVLELKGSETTFMCEYADETATIVEFLNRWITFAQSIISTLT
notes: The fragments present on the SPR chip are not described
B1: no binding.
